Response data for one variant are collected here from publication PMC3006384, “Phosphorylation of Mouse Immunity-Related GTPase (IRG) Resistance Proteins Is an Evasion Strategy for Virulent Toxoplasma gondii” (PLoS Biology, 2010).

Sequences and labels used below:
B1: recombinant wt Irga6 (bacterially expressed, from pGEX-4T-2-Irga6) [mouse] / itself (parent)
chain: MGQLFSSPKSDENNDLPSSFTGYFKKFNTGRKIISQEILNLIELRMRKGNIQLTNSAISDALKEIDSSVLNVAVTGETGSGKSSFINTLRGIGNEEEGAAKTGVVEVTMERHPYKHPNIPNVVFWDLPGIGSTNFPPNTYLEKMKFYEYDFFIIISATRFKKNDIDIAKAISMMKKEFYFVRTKVDSDITNEADGKPQTFDKEKVLQDIRLNCVNTFRENGIAEPPIFLLSNKNVCHYDFPVLMDKLISDLPIYKRHNFMVSLPNITDSVIEKKRQFLKQRIWLEGFAADLVNIIPSLTFLLDSDLETLKKSMKFYRTVFGVDETSLQRLARDWEIEVDQVEAMIKSPAVFKPTDEETIQERLSRYIQEFCLANGYLLPKNSFLKEIFYLKYYFLDMVTEDAKTLLKEICLRN

The variants in this assay derive from B1. Description: light scattering (GTP-dependent oligomerisation). To be noted: with itself, value read at the last time point, 60 min, parent: 0.61, read off a plot.
For chain 1 T108D, the response was determined as 0.22 a.u.
